Measurements taken from publication PMC3467072.

Key:
[1] = molecular target: Rv3066 regulator, full-length, with a 6xHis tag at the C-terminus (Mycobacterium tuberculosis strain H37Rv) (UniProt I6X658); assay: crystal structure
[2] = molecular target: T1, Rv3066 (TetR-family regulator) (Mycobacterium tuberculosis H37Rv) (UniProt I6X658); assay: DNase I footprinting
T1 sequence: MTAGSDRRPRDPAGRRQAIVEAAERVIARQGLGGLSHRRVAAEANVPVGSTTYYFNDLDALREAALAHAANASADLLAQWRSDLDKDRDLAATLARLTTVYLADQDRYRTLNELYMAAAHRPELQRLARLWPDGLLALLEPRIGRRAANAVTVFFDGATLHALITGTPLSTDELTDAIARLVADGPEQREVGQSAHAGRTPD

For “Rv3066 regulator, full-length, with a 6xHis tag at the C-terminus (from UniProt I6X658 1-202) (natural protein)”, the stoichiometry N [1] was 2.
In the case of “TCGAGATCTTTCACCATGACACGACGTTACGGGGATCGACCGCGCGAACGCTGGGCGGATTTTGTCTCCCACCGGTGTGCCTACTCACGTGTGGACGCACGAGCCTCCTTTGTGTACATTTGTACACAAAGGAGGGGTCTTGATCTACCTATACCTCTTGTGCGCGATCTTCGCGGAAGTGGTGGCAACCAGCCTGCTCAAAAGCACGGAAGGGTTCACTCGGTTG (double strand) [226-bp mmr promoter probe (IR1, IR2 removed)]”, the binding [2] is reported as “binds”.
